This data set in a line: label from the status in PepcDB records.
With “MNMIEPAPVRKSVTVRTSPQQAFDVFVSGMGTWWIKGHSLTQSGQKTVVVEAVAGGRWYEIGNAGEECEWGRVIACDRPNRVLFDWQLNADFDYDPGLHTEVEVLFEANGEGGTTVILEHRHLEKYGVKAKEMRGIFDSENGWGGLLASYMEKAAA”, the protein production result is “failed”. With “MNMNKTYIPKLDDLLGGGVKEGASIMFSASPGVDYEAFGYQMLNGRLDEGTRGFIFTNVEEPESIIYEFRSYGWDIESHIENGNLFFVDGSSPFLGMPSDQRYTVNDYSEIKDVVLNAINDIPGGVGIINNLSVIIDYLGNGDTLEIVEAWNRRASELDVNLVYLFTEWDYEPELIDKLRESMDCVVNLRTIEERVIIGQGFMVANSAWSEPPSTMVLFFVVQPGGVKVYVPKILVTGPYNSGKSSFVRAIATKSVSVDRKALSAFPTTIAMDIGHLEYKGFMADIFGTPGQERFDMILDVLSREAVGAFILLDSTAPETFARAKEMIRKTRAEAIPKVVVANKQDLPGALSPEEIREMMKLGADVPIVPASVTEGWGVRDALDTLLGLLYGGLEHHHHHH” the entry was “failed”. Take “MNNEAVFSARLSSTQHVGLCRLCNSPLVHTFVDLGMSPPCESFVAADAANDVEPFYPLHAFVCDECFLVQLQEYVAPENIFTEYAYFSSFSDSWVAHAKRYCDMVIERFALGQSSFVVELASNDGYLLQHFLTSNIPMLGIEPAVNVAKVAIGKGIPTLTEFFNEALATDMAARGQKADLIIGNNVLAQVPDINDFVAGMKTLLKPEGVITLEFPHIEKLIAENQFDTIYHEHFSYFSLLTIEKMARRHGLKVFDVEEIPTHGGSLRVFFSHEDIRFPREARVDSLLARELNAGLDKIETYTAFAEAVRQTKRNLLSFLIRLKEMRKSICAYGAPGKGNTLLNYCGIGTDFIDFAVDRNPYKHGRLTPGMHIPIRPVSEIPHMKPDYVLILPWNLKNEIVAQMKDIRNWGGKFIVPIPDISIIDPKELVQ”: the protein production entry was “failed”. As to “MNNKFKDFFGFGDNDSYEERDAYEEHYDEQEEMQNSNRPTNSRDSNVVSIKAGQAGSGPSKIVLYEPRVYSDAKEVAQNLLNQRAIIINFSRMDDASARRVVDFITGTVYALNGEIQRIGDKIFLATPPKFETDGKITELLDKKDTLG”, the protein production result is “failed”. Regarding “MNNKTNWVIIGRFGRPHGIKGFVTVHSFTDPADNILRYNDWHVFLNKQWQPLKLLTIEVRSKAIIAQIEGYPKRELVSALTNLDIGVQESQLAALAPGEYYWYQLIGMSVINSKGDLFGKVVEIMPTGSNDVLVVEGEKRHLIPYLPGQFVINVDESQQVITVDWDMNF”, the protein production result was “failed”. As for “MNNLNFTVIIPLFNKAEHILRTLQSVEWQKYPAAEIIVIDDGSTDEGPALVEKANIKNVKLVHQENQGVSAARNNGVALASHEYVAFLDADDEWLPLFLDEVARLIVKFPQAQFFGTRYQIVEPENNYCDAKIKLENINPEGVILDNYFDIASQGDLPFTMSSMVIERSLFQSIGGFPLNEPIGEDQDLFCRVALNTSIAYSPNIHSLYHKDAQNQASRINIPSTECGFSVRITKEARKDTKRKSAKYMLKYSATHLCHLAKLNIGNGHFSQARKLLSDPRCKLKPKHLIGLYGLSWIQQTSQWLANIIDYKQI”, the protein production result is “failed”. Next, “MNNNEKKVKYFLRKTAYGLASMSAAFAVCSGIVHADTSSGISASIPHKKQVNLGAVTLKNLISKYRGNDKAIAILLSRVNDFNRASQDTLPQLINSTEAEIRNILYQGQIGKQNKPSVTTHAKVSDQELGKQSRRSQDIIKSLGFLSSDQKDILVKSISSSKDSQLILKFVTQATQLNNAESTKAKQMAQNDVALIKNISPEVLEEYKEKIQRASTKSQVDEFVAEAKKVVNSNKETLVNQANGKKQEIAKLENLSNDEMLRYNTAIDNVVKQYNEGKLNITAAMNALNSIKQAAQEVAQKNLQKQYAKKIERISSKGLALSKKAKEIYEKHKSILPTPGYYADSVGTYLNRFRDKQTFGNRSVWTGQSGLDEAKKMLDEVKKLLKELQDLTRGTKEDKKPDVKPEAKPEAKPDVKPEAKPDVKPEAKPDVKPEAKPDVKPEAKPDVKPEAKPDVKPKAKPDVKPEAKPDVKPDVKPDVKPEAKPEDKPDVKPDVKPEAKPDVKPEAKPEAKPEAKPEAKPEAKPEAKPDVKPEAKPDVKPEAKPEAKPEAKSEAKPEAKLEAKPEAKPATKKSVNTSGNLAAKKAIENKKYSKKLPSTGEAASPLLAIVSLIVMLSAGLITIVLKHKKN”: “failed”; “MNNQEKNMLGFNQDEYLTSAREIIAARQKAEQVADEIYQAGFSSLFFASVGGSLAPMMAINEFAKELTTLPVYVEQAAELIHKGNKRLNKDSVVITLSKSGDTKESVAIAEWCKAQGIRVVAITKNADSPLAQAATWHIPMRHKNGVEYEYMLLYWLFFRVLSRNNEFASYDRFASQLEILPANLLKAKQKFDPQADAIASRYHNSDYMMWVGGAEMWGEVYLFSMCILEEMQWKRTRPVSSAEFFHGALELLEKDVPLILVKGEGKCRALDERVERFASKITDNLVVIDPKAYALDGIDDEFRWIMAPCVVSTLLVDRLAAHFEKYTGHSLDIRRYYRQFDY”: “not failed”.

Regarding “MNNTIPRWRGFNLLEAFSIKSTGNFKEEDFLWMAQWDFNFVRIPMCHLLWSDRGNPFIIREDFFEKIDRVIFWGEKYGIHICISLHRAPGYSVNKEVEEKTNLWKDETAQEAFIHHWSFIARRYKGISSTHLSFNLINEPPFPDPQIMSVEDHNSLIKRTITEIRKIDPERLIIIDGLGYGNIPVDDLTIENTVQSCRGYIPFSVTHYKAEWVDSKDFPVPEWPNGWHFGEYWNREKLLEHYLTWIKLRQKGIEVFCGEMGAYNKTPHDVVLKWLEDLLEIFKTLNIGFALWNFRGPFGILDSERKDVEYEEWYGHKLDRKMLELLRKY”, the protein production entry is recorded as “not failed”. Next, “MNPDSQHHATFNPGKGEGSPVGIAILGYGTVGSQVLRLLTENHNDFQHRAGGPLEIKGVAASSVEKHRGSLADQLGLLTDDARSLIARDDVDIVVEVIGGIDYPRELILEALHSGKSVVTANKALVAAHSEELAAAADEAGVDLYFEAAVAAAIPVLGPLRRSLAGDQIQSVAGIVNGTTNFILDAMDSTGASYDDMLAEATRLGYAEADPTADVEGHDAASKAAILASLAFHTRVTYADVYCEGISKITADDINAAKEAGFTIKLLAICERLNVDGVEKVSARVHPTLVPRNHPLASVDKSFNAIFVEAEAAGRLMFYGNGAGGNPTASAVLGDIVGAARNKVFGGRAPGESTYADLPIAPFGEVPTRFHIDMEVEDRVGVLADLAKTFSNHGISLRTVRQAEKDGHARLIVVTHTAKESELEATVEQIKNSDSVKKINSVIRLAGE”: “failed”; “MNPENKMMLMAYGIFAIAGIISGILAYAPLGWIIGWIIYILAPKLLLNLVPDLPEELRNERVILRKTFWSFFFFWLYFTGLTYTLITNYEPVAYYEKALYYNITKG”: “failed”; “MNPKHSCTNFGADIPVNSQLIVTTSELRQKLKEKNKFILVDNRTWDEHIGKVSGYTYYDKKGRIPGALYGHSGSDSVSLEEYRNIDNTMRNKYEILEMWDKENIDVNKQLIFMCGSGWRAAEVLTYANVIGVENTSLYSDGWMGWSLDNSNLIEVGEHKLEHHHHHH”: “failed”. As for “MNPLDLIAKRAYPYETEKRDKTYLALNENPFPFPEDLVDEVFRRLNSDALRIYYDSPDEELIEKILSYLDTDFLSKNNVSVGNGADEIIYVMMLMFDRSVFFPPTYSCYRIFAKAVGAKFLEVPLTKDLRIPEVNVGEGDVVFIPNPNNPTGHVFEREEIERILKTGAFVALDEAYYEFHGESYVDFLKKYENLAVIRTFSKAFSLAAQRVGYVVASEKFIDAYNRVRLPFNVSYVSQMFAKVALDHREIFEERTKFIVEERERMKSALREMGYRITDSRGNFVFVFMEKEEKERLLEHLRTKNVAVRSFREGVRITIGKREENDMILRELEVFK”, the protein production entry was “not failed”.

Regarding “MNPPDISVLIVSFNTRDLLRRCLASLRDQAGGTGIETIVVDNASRDGSADMVEAEFPDVRLIRSPVNLGFGNANNLAFTQSRGRYLVLLNSDACLAPGLLDAASKRMDACPDVGMAGGRLVGPEGGWQPSARMFPSLLNEFLVLSGLAHRYPKSRLFGRFDRTWADPSEEAGVDWVPGAFAILRRDLIDRIGFFDPRFFLYYEEVDLCRRIRAAGCKIMYWPELVITHLGGESAKTLSDMEFSSHASQLTLWRMRSQALYYRKWHGLALAWSAKTLEQLWHWLRALRHRRSAPAKAHDSEALIRLWNRAWKETEGGRVSPPQPWLEHHHHHH”, the protein production entry is listed as “failed”. For the sequence “MNPPEKLLTAENPALRQRAKAMRQEMSEAEAKLWQHLRAGRLNGYKFRRQQPMGNYIVDFMCVTPKLIVEADGGQHAEQAVYDHARTVYLNSLGFTVLRFWNHEILQQTNDVLAEILRVLQELEKQPAR”, the protein production entry is on record as “not failed”.

Values taken from a protein production outcome set (Wang et al. 2014).
